Laboratory results as given in patent US20090092581A1.
Several values for one entry are separate records, joined by “and”; a condition that tells them apart may be missing. Identical values can stand only once.

T1: Type I IFN receptor on iLite human IFN-α gene-reporter cells (human) (UniProt P17181)
T1 sequence (looked up) 1: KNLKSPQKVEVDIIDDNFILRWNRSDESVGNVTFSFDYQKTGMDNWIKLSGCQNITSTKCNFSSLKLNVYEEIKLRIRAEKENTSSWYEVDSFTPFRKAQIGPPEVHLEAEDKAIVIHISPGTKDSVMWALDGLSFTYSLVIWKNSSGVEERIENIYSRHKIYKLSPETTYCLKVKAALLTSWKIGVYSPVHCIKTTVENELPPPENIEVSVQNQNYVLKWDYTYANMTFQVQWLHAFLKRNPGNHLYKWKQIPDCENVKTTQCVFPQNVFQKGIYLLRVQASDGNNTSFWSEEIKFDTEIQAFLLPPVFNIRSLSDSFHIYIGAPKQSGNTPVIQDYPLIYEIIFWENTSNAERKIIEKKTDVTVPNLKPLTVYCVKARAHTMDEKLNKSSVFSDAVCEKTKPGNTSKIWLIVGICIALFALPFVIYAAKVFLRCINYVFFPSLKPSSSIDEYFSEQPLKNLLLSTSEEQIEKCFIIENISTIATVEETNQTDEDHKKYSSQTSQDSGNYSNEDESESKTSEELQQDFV
T1 sequence (looked up) 2: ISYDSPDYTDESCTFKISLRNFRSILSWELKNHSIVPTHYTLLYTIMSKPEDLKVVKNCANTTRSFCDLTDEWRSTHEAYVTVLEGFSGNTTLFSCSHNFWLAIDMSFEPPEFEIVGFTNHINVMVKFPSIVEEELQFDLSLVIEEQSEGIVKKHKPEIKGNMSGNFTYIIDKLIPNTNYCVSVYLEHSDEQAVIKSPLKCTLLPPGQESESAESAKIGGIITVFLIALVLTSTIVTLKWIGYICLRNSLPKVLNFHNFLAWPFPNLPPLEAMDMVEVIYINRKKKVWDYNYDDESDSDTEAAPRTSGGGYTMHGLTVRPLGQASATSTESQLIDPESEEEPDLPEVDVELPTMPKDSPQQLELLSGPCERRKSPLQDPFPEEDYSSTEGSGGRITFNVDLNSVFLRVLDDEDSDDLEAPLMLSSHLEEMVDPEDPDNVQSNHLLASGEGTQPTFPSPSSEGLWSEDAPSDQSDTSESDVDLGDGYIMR


Key:
[1] = target: T1, Type I IFN receptor on iLite human IFN-α gene-reporter cells (human); assay: cell-based or functional assay
[2] = target: Cynomolgus IFN-α protein SEQ ID 54, expressed in Vero tissue culture supernatant (Cynomolgus (Macaca fascicularis)); assay: ELISA kit PBL #41105 on Vero supernatant; read against human IFN-α2a standard curve; unit not given; second of two values
[3] = target: Cynomolgus IFN-α protein SEQ ID 66, expressed in Vero tissue culture supernatant (Cynomolgus (Macaca fascicularis)); assay: ELISA kit PBL #41105 on Vero supernatant; read against human IFN-α2a standard curve; unit not given
[4] = target: Cynomolgus IFN-α protein SEQ ID 46, expressed in Vero tissue culture supernatant (Cynomolgus (Macaca fascicularis)); assay: as above
[5] = target: Cynomolgus IFN-α protein SEQ ID 58, expressed in Vero tissue culture supernatant (Cynomolgus (Macaca fascicularis)); assay: as above
[6] = target: Cynomolgus IFN-α protein SEQ ID 62, expressed in Vero tissue culture supernatant (Cynomolgus (Macaca fascicularis)); assay: as above
[7] = target: Cynomolgus IFN-α protein SEQ ID 42, expressed in Vero tissue culture supernatant (Cynomolgus (Macaca fascicularis)); assay: as above
[8] = target: Cynomolgus IFN-α protein SEQ ID 50, expressed in Vero tissue culture supernatant (Cynomolgus (Macaca fascicularis)); assay: as above
[9] = target: Cynomolgus IFN-α protein SEQ ID 56, expressed in Vero tissue culture supernatant (Cynomolgus (Macaca fascicularis)); assay: as above
[10] = target: Cynomolgus IFN-α protein SEQ ID 60, expressed in Vero tissue culture supernatant (Cynomolgus (Macaca fascicularis)); assay: as above
[11] = target: Cynomolgus IFN-α protein SEQ ID 54, expressed in Vero tissue culture supernatant (Cynomolgus (Macaca fascicularis)); assay: ELISA kit PBL #41105 on Vero supernatant; read against human IFN-α2a standard curve; unit not given; first of two values

% Neutralization of Luciferase Induction by anti-Type I IFN Receptor Antibody (25 µg/mL) [1] [%]	Luciferase Induction Activity (U/mL) [1] [U/mL]	Molecule	also measured
> 99	2700	Cynomolgus IFN-α protein SEQ ID 46, expressed in Vero tissue culture supernatant (from UniProt P01571 24-189) (ligand)	
> 99	6630	Cynomolgus IFN-α protein SEQ ID 66, expressed in Vero tissue culture supernatant (from UniProt P01563 24-188) (ligand)	
> 99	8950	Cynomolgus IFN-α protein SEQ ID 58, expressed in Vero tissue culture supernatant (from UniProt P01570 24-189) (ligand)	
> 99	48900	Cynomolgus IFN-α protein SEQ ID 60, expressed in Vero tissue culture supernatant (from UniProt P32881 24-189) (ligand)	
> 99	11600	Cynomolgus IFN-α protein SEQ ID 54, expressed in Vero tissue culture supernatant (from UniProt P01568 24-188) (ligand)	
		Human IFN-α Multi-Subtype ELISA kit, PBL # 41105 (kit antibodies) (antibody)	ELISA estimate of IFN-α protein level in tissue culture supernatant [2]: 8; ELISA estimate of IFN-α protein level in tissue culture supernatant [3]: > 651 and 1500; ELISA estimate of IFN-α protein level in tissue culture supernatant [4]: 187 and 123; ELISA estimate of IFN-α protein level in tissue culture supernatant [5]: > 1120; ELISA estimate of IFN-α protein level in tissue culture supernatant [6]: 75 and 95; ELISA estimate of IFN-α protein level in tissue culture supernatant [7]: 287 and 566; ELISA estimate of IFN-α protein level in tissue culture supernatant [8]: > 1120; ELISA estimate of IFN-α protein level in tissue culture supernatant [9]: 289 and 414; ELISA estimate of IFN-α protein level in tissue culture supernatant [10]: > 651 and 1000; ELISA estimate of IFN-α protein level in tissue culture supernatant [11]: 8
> 99	16000	Cynomolgus IFN-α protein SEQ ID 62, expressed in Vero tissue culture supernatant (from UniProt P01571 24-189) (ligand)	
> 99	36700	Cynomolgus IFN-α protein SEQ ID 42, expressed in Vero tissue culture supernatant (from UniProt P01571 24-189) (ligand)	
> 99	515	Cynomolgus IFN-α protein SEQ ID 52, expressed in Vero tissue culture supernatant (ligand) MALSFSLLMAVVVLSYKSICSLGCDLPQTHSLGHRRALILLAQMQRISLPSCLKDRHDFAFLQEFDGNQFQKAQAMSVLHEMIQQTFNLLSTKDSSAAWDETLLDKFYIELFQQLNDLEACVIQEAGVEETPLMNEDSILAVRKYFQRITLYLTEKKYSPCAWEVVRAEIMRSLSFSTNLQKRLGRKD	
> 99	822	Cynomolgus IFN-α protein SEQ ID 56, expressed in Vero tissue culture supernatant (ligand) CDLPQTHSLGHRRALILLAQMGRISPFSCLKDRHDFGFPQEEFDGNQFQKAQAMSVLHEMIQQTFNLFSTKDSSAAWEQNLLEKFSAELYQQLNDLKACVIAEPGMEDTPLMNEDSILAVKKYFQRITLYLTEKKYSPCAWEVVRAEIMRSLSFSTNLQKRLRRKD	
> 99	2830	Cynomolgus IFN-α protein SEQ ID 44, expressed in Vero tissue culture supernatant (ligand) CDLPQTHSLGHRRALILLAQMGRISPFSCLKDRRDFAFPQEEFDGNQFQKAQAMSVLHEMIQQTFNLFSTKDSSAAWEQNLLEKFSAELYQQLNDLKACVIAEPGMEDTPLMNEDSILAVKKYFQRITLYLTEKKYSPCAWEVVRTEIMRSLSFSTNLQKRLRRKD	
> 99	8040	Cynomolgus IFN-α protein SEQ ID 50, expressed in Vero tissue culture supernatant (ligand) CNPSQTHNMNNRRTLMLMAQMRRISPFSCLKDRNDFEFPQEEFDGNQFQNTQAISVLHEMMQQTFNLFSTKDSSAAWDETLLDKFYIELFQQLNDLEACVIQEAGVEETPLMNEDSILAVRKYFQRITLYLMEKKYSPCAWEVVRAEIMRSLSFSTNLQKRLRRKD	
> 99	2170	Cynomolgus IFN-α protein SEQ ID 48, expressed in Vero tissue culture supernatant (ligand) MALSFSLLMAVVVLSYKSICSLGCDPPRTHSLGHRRALILLAQMERISPFSCLKDRCDFAFPQEEFDGNQFQKAQAMSVLHEMIQQTFNLFSTKDSSAAWEQNLLEKFSAELYQQLNDLKACVIAEPGMEETLLMNEDSILAVKKYFQRITLYLTEKKYSPCAWEVVRAEIMRSLSFSTNLQKRLRRKD	
